Source: patent US11203633B2, “Polynucleotides encoding antibodies or antigen binding fragments thereof that bind pseudomonas perv” (priority 2011, dated 2021)

Assays:
[1] = system: P. aeruginosa (6077 exoU+; 6206) lysis of rabbit red blood cells; assay: Rabbit red blood cell (RBC) lysis inhibition assay; format: cell-based, Pseudomonas aeruginosa; conditions: strain 6077; FIG. 12D-E
Protocol: Percent inhibition of cytotoxicity analysis was analysed for the parental V2L2 mAb, mAb166 (positive control) and R347 (negative control), where the antibodies were administered to cultured broncho-epithelial cell line A549 combined with log-phase P. aeruginosa strain 6077 (exoU+) at a MOI of approximately 10. A549 lysis was assayed by measuring released lactate dehydrogenase (LDH) activity and lysis in the presence of mAbs was compared to wells without mAb to determine percent inhibition. The V2L2 mAb, mAb166 (positive control) and R347 (negative control) were evaluated for their ability to prevent lysis of RBCs, where the antibodies were mixed with log-phase P. aeruginosa 6077 (exoU^+) and washed rabbit red blood cells (RBCs) and incubated for 2 hours at 37°. Intact RBCs were pelleted and the extent of lysis determined by measuring the OD405 of the cell-free supernatant. Lysis in the presence of anti-PcrV mAbs was compared to wells without mAb to determine percent inhibition. The positive control antibody, mAb166, is a previously characterized anti-PcrV antibody (J Infect Dis. 186: 64-73 (2002), Crit Care Med. 40: 2320-2326 (2012)).

rPcrV protein = assay: Binding kinetics, Bio-Rad ProteOn XPR36; design: species or system Pseudomonas aeruginosa; conditions: antibody captured, rPcrV injected; FIG. 12G-H
Protocol: Binding kinetics of V2L2-GL and V2L2-MD were measured using a Bio-Rad ProteOn™ XPR36 instrument. Antibodies were captured on a GLC bisensor chip using anti-human IgG reagents. rPcrV protein was injected at multiple concentrations and the dissociation phase followed for 600 seconds. Data was captured and analyzed using ProteOn Manager software. […] The clone V2L2-MD had increased Kd by 2-3 folds over V2L2-GL.

B1: V2L2-MD: optimized V2L2-GL mAb; germlined lead optimized anti-PcrV antibody (antibody, V domains shown)
VH: EMQLLESGGGLVQPGGSLRLSCAASGFTFSSYAMNWVRQAPGEGLEWVSAITISGITAYYTDSVKGRFTISRDNSKNTLYLQMNSLRAGDTAVYYCAKEEFLPGTHYYYGMDVWGQGTTVTVSS
VL: AIQMTQSPSSLSASVGDRVTITCRASQGIRNDLGWYQQKPGKAPKLVIYSASTLQSGVPSRFSGSGSGTDFTLSISSLQPDDFATYYCLQDYNYPWTFGQGTKVEIK
modifications: V2L2-MD VH; V2L2-MD and V2L2-GL VL
- prevention of RBC lysis [1]: demonstrated prevention of RBC lysis
- change of Kd over V2L2-GL (rPcrV protein): 2-3 folds
